Measurements from the Immune Epitope Database (IEDB).
One block for each sequence: values may come before it.

How the values were obtained:
Assay in all cases: IEDB peptide-MHC binding, purified MHC/competitive/fluorescence; filed as Kd, often an IC50 or EC50 that approximates it; ≥ and ≤ were set here for values at or beyond the usual limits of such assays
HLA-A*01:01 = conditions: source organism: Entamoeba histolytica HM-1:IMSS
HLA-A*02:01 = target: HLA-A*02:01
HLA-A*02:19 = target: HLA-A*02:19
HLA-A*03:01 = conditions: source organism: Entamoeba histolytica HM-1:IMSS
HLA-A*11:01 = conditions: source organism: Entamoeba histolytica HM-1:IMSS
HLA-A*23:01 = target: HLA-A*23:01
HLA-A*24:03 = target: HLA-A*24:03
HLA-A*26:01 = target: HLA-A*26:01
HLA-A*29:02 = target: HLA-A*29:02
HLA-A*30:01 = conditions: source organism: Entamoeba histolytica HM-1:IMSS
HLA-A*30:02 = conditions: source organism: Entamoeba histolytica HM-1:IMSS
HLA-A*66:01 = conditions: source organism: Entamoeba histolytica HM-1:IMSS
HLA-A*68:02 = target: HLA-A*68:02
HLA-B*08:01 = conditions: source organism: Entamoeba histolytica HM-1:IMSS
HLA-B*14:02 = conditions: source organism: Entamoeba histolytica HM-1:IMSS
HLA-B*15:01 = conditions: source organism: Entamoeba histolytica HM-1:IMSS
HLA-B*15:17 = conditions: source organism: Entamoeba histolytica HM-1:IMSS
HLA-B*18:01 = conditions: source organism: Entamoeba histolytica HM-1:IMSS
HLA-B*27:03 = conditions: source organism: Entamoeba histolytica HM-1:IMSS
HLA-B*27:05 = conditions: source organism: Entamoeba histolytica HM-1:IMSS
HLA-B*39:01 = target: HLA-B*39:01
HLA-B*40:01 = conditions: source organism: Entamoeba histolytica HM-1:IMSS
HLA-B*44:02 = conditions: source organism: Entamoeba histolytica HM-1:IMSS
HLA-B*46:01 = target: HLA-B*46:01
HLA-B*51:01 = target: HLA-B*51:01
HLA-B*53:01 = conditions: source organism: Entamoeba histolytica HM-1:IMSS
HLA-B*57:01 = target: HLA-B*57:01
HLA-B*58:01 = conditions: source organism: Entamoeba histolytica HM-1:IMSS
HLA-A*02:03 = conditions: source organism: Escherichia coli O157:H7 str. Sakai
HLA-A*02:11 = conditions: source organism: Escherichia coli O157:H7 str. Sakai
HLA-A*02:12 = conditions: source organism: Escherichia coli O157:H7 str. Sakai
HLA-A*02:16 = conditions: source organism: Escherichia coli O157:H7 str. Sakai
HLA-A*69:01 = conditions: source organism: Escherichia coli O157:H7 str. Sakai
HLA-A*80:01 = conditions: source organism: Escherichia coli O157:H7 str. Sakai
[1] = source organism: Entamoeba histolytica HM-1:IMSS
[2] = source organism: Escherichia coli O157:H7 str. Sakai

Sequence: NPAACSYMV
Kd (HLA-A*01:01): ≥ 5 µM
Kd (HLA-A*02:01; [1]): ≥ 20 µM
Kd (HLA-A*02:19; [1]): ≥ 20 µM
Kd (HLA-A*03:01): ≥ 20 µM
Kd (HLA-A*11:01): ≥ 5 µM
Kd (HLA-A*23:01; [1]): ≥ 20 µM
Kd (HLA-A*24:03; [1]): ≥ 20 µM
Kd (HLA-A*26:01; [1]): ≥ 20 µM
Kd (HLA-A*29:02; [1]): 0.122 µM
Kd (HLA-A*30:01): ≥ 5 µM
Kd (HLA-A*30:02): ≥ 5 µM
Kd (HLA-A*66:01): ≥ 5 µM
Kd (HLA-A*68:02; [1]): 0.0283 µM
Kd (HLA-B*08:01): ≥ 5 µM
Kd (HLA-B*14:02): ≥ 5 µM
Kd (HLA-B*15:01): ≥ 20 µM
Kd (HLA-B*15:17): ≥ 20 µM
Kd (HLA-B*18:01): ≥ 20 µM
Kd (HLA-B*27:03): ≥ 20 µM
Kd (HLA-B*27:05): ≥ 5 µM
Kd (HLA-B*39:01; [1]): 0.232 µM
Kd (HLA-B*40:01): ≥ 5 µM
Kd (HLA-B*44:02): ≥ 5 µM
Kd (HLA-B*46:01; [1]): ≥ 20 µM
Kd (HLA-B*51:01; [1]): ≥ 20 µM
Kd (HLA-B*53:01): ≥ 5 µM
Kd (HLA-B*57:01; [1]): ≥ 20 µM
Kd (HLA-B*58:01): ≥ 5 µM

Kd (HLA-A*02:01; [2]): ≥ 20 µM
Kd (HLA-A*02:03): ≥ 20 µM
Kd (HLA-A*02:11): ≥ 20 µM
Kd (HLA-A*02:12): ≥ 20 µM
Kd (HLA-A*02:16): ≥ 20 µM
Kd (HLA-A*02:19; [2]): ≥ 20 µM
Kd (HLA-A*23:01; [2]): ≥ 20 µM
Kd (HLA-A*24:03; [2]): ≥ 20 µM
Kd (HLA-A*26:01; [2]): ≥ 20 µM
Kd (HLA-A*29:02; [2]): 0.0016 µM
Kd (HLA-A*68:02; [2]): ≥ 20 µM
Kd (HLA-A*69:01): ≥ 20 µM
Kd (HLA-A*80:01): 0.0072 µM
Kd (HLA-B*39:01; [2]): ≥ 20 µM
Kd (HLA-B*46:01; [2]): ≥ 20 µM
Kd (HLA-B*51:01; [2]): ≥ 20 µM
Kd (HLA-B*57:01; [2]): ≥ 20 µM
Sequence: HQIWLALRY
